The Km is the concentration of substrate that gives half-maximal velocity.

Substrate in the series: O=C(O)c1cc(O)c(O)c(O)c1
The experiment in a line: HPLC product assay, steady-state kinetics. The series is classed as biochemical, Punica granatum. Particulars: UDP-glucose co-substrate (0.6 mM in standard assay), 50 mM MES pH 5.5, 3 mM 2-mercaptoethanol, 30 °C, gallic acid 30-500 μM.

B1: PgUGT72BD1 (Punica granatum) (protein)
chain: MAQVSTKPHVALFASPGIGHLIPVLQLGERFVSRHNFVVTVFVVVTDAATAESQLKQQSSYKNLLNVVLLPPVDLTSLTNKPLAILSQLVLIVRQSLPDLRSAIASMKSRPTALIVDLFGTEAFAIADEFHMLKYEFFTTNAWFLALTLYAPHVDREHEDDHILRHMPLHIPGCASILYEDTVDVYTDRNDKLLHDDYVRIGRRLAEADGILINTWESLEPKTLQALRDPKAFGRFSQVRILPIGPLVSGFQSFGSSQPKDDILQWLDDQPTESVLYVSFGSGGTLSADQLTELAWGLEQSQHRFIWVVRPPQENSACGAYFEQAKRADGTPEYLPDGFVTRTQKLGLVVPMWAPQREILAHPSIGGFLSHCGWNSTLESLINGVPLIAWPLYAEQTMNATMLTDQLGIAARSRELMPNGVLGRHEIEKMVRTVMNKEDAKGETIRARSQDLKRTALLAVAEGGSSYAALSQVAQECKIGLVGLKQRARGA
notes: codon-optimized ORF in pET28a, His-tagged, E. coli BL21(DE3), Ni-NTA purified; no signal peptide detected
In the case of B1, the Km stood at 190 ± 70 µM and the kcat result is reported as “(2.83 ± 0.5) × 10^−3 s^−1”.
